Reference: the nanobody polyreactivity screen of Harvey et al. (2022)

Assay: yeast display, Sf9 membrane polyspecificity reagent, FACS + sequencing; frameworks hold sequencing errors
How it was run: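 After 36–48 hours of galactose induction, yeast (Saccharomyces cerevisiae BJ5465) displaying a synthetic nanobody library were stained at 4 °C for 1 hour with 10% biotinylated, detergent-solubilized Sf9 membrane reagent. Streptavidin microbeads enriched the stained cells before FACS sorting into low and high (top ~1%) gates on anti-HA and streptavidin fluorescence. Each clone's polyreactivity label reflects its gate of origin.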

**Q.** For “QVQLVESGGGLVQAGGSLRLSCAASGFTFVNYVMGWYRQAPGKERELVAAISRSGGSTYYADSVKGRFTISRDNAKNTVYLQMNSLKPEDTAVYYCAARWFYRAGFNYWGQGTQVTVSS”, which “polyreactivity (PSR sort gate)” value is on record?
**A.** The value was “high polyreactivity”.

**Q.** Which “polyreactivity (PSR sort gate)” value does the source give for “QVQLVESGGGLVQAGGSLRLSCAASGFTFVPYAMGWYIQAPGKERELVAAISSRGDSTYYADSVKGRFTISRDNAKNTVYLQMNSLKPEDTAVYYCNARTTPHMDYWGQGTQVTVSS” here?
**A.** Its value is “low polyreactivity”.

**Q.** For “QVQLVESGGGLVQAGGSLRLSCAASGFTFVPYAMGWYRQAPGKERELVAAISYSGGSRYYADSVKGRFTISRDNAKNTVYLQMNSLKPEDTAVYYCAALRWYHYGYWGQGTQVTVSA”, which “polyreactivity (PSR sort gate)” value is on record?
**A.** The value was “high polyreactivity”.

**Q.** With “QVQLVESGGGLVQAGGSLRLSCAASGFTFVQYAMGWYRQAPGKERELVATISKSGGITYYADSVKGRFKISRDYAKNTVYLQMNSLKPEDTAVYYCAASWYYSSRGFHATWGHDYWGQGTQVTVSS” as the sequence, how does the “polyreactivity (PSR sort gate)” value read?
**A.** The value was “low polyreactivity”.

**Q.** For “QVQLVESGGGLVQAGGSLRLSCAASGFTFVRNAMGWYRQAPGKEREFVAAITWTGGSTSYADSVKGRFTISRDNAMITVYLQMNSLKPEDTAVYYCDAVGYGYGFEYWGQGTQVTVSA”, which “polyreactivity (PSR sort gate)” value is on record?
**A.** Its value is “high polyreactivity”.

**Q.** For “QVQLVESGGGLVQAGGSLRLSCAASGFTFVRYAMGWYRQAPGKEREFVAGITRSGGSTYYADSVKGRFTISRDNAKNTVYLQMNSLKPEDTAVYYCNRAYYSYHDQPYEYWGQGTQVSVSS”, which “polyreactivity (PSR sort gate)” value is on record?
**A.** Its value is “high polyreactivity”.

**Q.** For “QVQLVESGGGLVQAGGSLRLSCAASGFTFVRYAMGWYRQAPGKERELVAAISSSGSSTYYADSVKGRFTISRDPVKNTVYLQMNSLIPEDTAVYYFNARAGGGEDYWGQGTQVTVSS”, which “polyreactivity (PSR sort gate)” value is on record?
**A.** The value was “low polyreactivity”.

**Q.** With “QVQLVESGGGLVQAGGSLRLSCAASGFTFVRYAMGWYRQAPGKERELVAGISRRGGSTYYADSVKGRFTISRDNAKNTVYLQMNSLKPEDTAVYYCAAKPIYYSRGYYWGQGTQVTVSS” as the sequence, how does the “polyreactivity (PSR sort gate)” value read?
**A.** The value was “high polyreactivity”.

**Q.** For “QVQLVESGGGLVQAGGSLRLSCAASGFTFVRYTMGWYRKAPGKERELVAAITASGDRTYYADSVKGRFTISRDNAKNTVYLQMNSLKPEDTAVYYCAKEYWGVTPTYYYWGQGTQVTVSS”, which “polyreactivity (PSR sort gate)” value is on record?
**A.** The value was “high polyreactivity”.

**Q.** With “QVQLVESGGGLVQAGGSLRLSCAASGFTFVRYTMGWYRQAPGKERELVAAITASGDRTYYADSVKGRFTISRDNAKNTVYLQMNSLKPEDTAVYYCAARVWRTVTRSKYGYWGQGTQVTVSS” as the sequence, how does the “polyreactivity (PSR sort gate)” value read?
**A.** Its value is “high polyreactivity”.

**Q.** For “QVQLVESGGGLVQAGGSLRLSCAASGFTFVSYAMGWSRQAPGKERELVAVISKSGSRTSYAESVKGRFTISRDNAKNTVYLQMNSLKPEDTAVYYCAVYYTRIGPRYDYWGQGTQVTVSS”, which “polyreactivity (PSR sort gate)” value is on record?
**A.** Its value is “high polyreactivity”.

**Q.** For “QVQLVESGGGLVQAGGSLRLSCAASGFTFVSYAMGWYRQAPGKERELVASITWTGGSTYYADSVKGRFTISRDNAKNTVYLQMNSLKPEDTAVYYGAAQQFYSGILGRYYWGQGTQVTVSS”, which “polyreactivity (PSR sort gate)” value is on record?
**A.** Its value is “low polyreactivity”.

**Q.** For “QVQLVESGGGLVQAGGSLRLSCAASGFTFVTNAMGWYRQAPGKERELVAAISSSGARTYYADSVKGRFTISRDNAKNTVYLQMNSLKPEDTAVYYCAVYYYDFTSTEYGYWGQGTQVTVSS”, which “polyreactivity (PSR sort gate)” value is on record?
**A.** The value was “high polyreactivity”.

**Q.** Which “polyreactivity (PSR sort gate)” value does the source give for “QVQLVESGGGLVQAGGSLRLSCAASGFTFVVYAMGWYRQAPGKERELVAAISARGGRTYYADSVKGRFTISRDNAKNTVYLQMNSLKPEDTAVYYCAATNQRQTRYDYWGQGTQVTVSS” here?
**A.** Its value is “high polyreactivity”.

**Q.** For “QVQLVESGGGLVQAGGSLRLSCAASGFTFVYNAMGWYRQAPGKERELVAAITSGGNTYYADSVKGRFTISRDNAKNTVYLQMNSLKPEDTAVYYCAKRGYVRYYAYDYWGQGTQVTVSS”, which “polyreactivity (PSR sort gate)” value is on record?
**A.** The value was “high polyreactivity”.

**Q.** For “QVQLVESGGGLVQAGGSLRLSCAASGFTFVYNAMGWYRQAPGKERELVAAITSGGNTYYADSVKGRFTISRDNAKNTVYLQMNSLKPEDTAVYYCAKVQNGQWSTSRVPGDYQYNYWGQGTQVTVSS”, which “polyreactivity (PSR sort gate)” value is on record?
**A.** The value was “high polyreactivity”.

**Q.** With “QVQLVESGGGLVQAGGSLRLSCAASGFTFVYYAMGWYRQAPGKERELVAAISSGGRTYYADSVKGRFTISRDNAKNTVYLQMNSLKPEDTAGYYCNKKVGSYYRSYYYWGQGTQVTVSS” as the sequence, how does the “polyreactivity (PSR sort gate)” value read?
**A.** Its value is “high polyreactivity”.

**Q.** Which “polyreactivity (PSR sort gate)” value does the source give for “QVQLVESGGGLVQAGGSLRLSCAASGFTFVYYAMVWYRQAPGKERELVAAISRSGGSTYYADSVKGRFTISRDNAKNTVYLQMNSLKPEDTAVYYCAADIVARYPYDYAMYYWGQGTQVTVSS” here?
**A.** Its value is “high polyreactivity”.

**Q.** Which “polyreactivity (PSR sort gate)” value does the source give for “QVQLVESGGGLVQAGGSLRLSCAASGFTFVYYNMGWYRQAPGKERELVAAITQSGGRTYYADSVKGRFTISRDNAKNTVYLQMNCLKPEDTAVYYCAARLWGKRDYRMDYWGQGSQVTVSS” here?
**A.** Its value is “high polyreactivity”.

**Q.** With “QVQLVESGGGLVQAGGSLRLSCAASGFTFVYYVMGWYRQAPGKERELVAAIRSGDGNTHYADTEKGRFTISRDNAKNTVYLQMNSLKPEDTAVYYCAASSRTFGYKYFYWGQGTQVTVSS” as the sequence, how does the “polyreactivity (PSR sort gate)” value read?
**A.** Its value is “high polyreactivity”.

**Q.** With “QVQLVESGGGLVQAGGSLRLSCAASGFTFWDYAMGWYRQAPGKESELVAAISDNDGSTDYADYVKGRFTISRDNAKNTVYLPMNSLKPEDTAVYYCNGEIELPSKEGDYWGQGTQVTVSS” as the sequence, how does the “polyreactivity (PSR sort gate)” value read?
**A.** The value was “low polyreactivity”.

**Q.** With “QVQLVESGGGLVQAGGSLRLSCAASGFTFWFNAMGWYRQAPGKEREFVATISYSGASTYYADSVKGRFTISRDNAKNTVYLQMNSLKPEDTAVYYCAAANYDFYAFDSTYRYNYWGQGTQVTVSS” as the sequence, how does the “polyreactivity (PSR sort gate)” value read?
**A.** The value was “low polyreactivity”.

**Q.** With “QVQLVESGGGLVQAGGSLRLSCAASGFTFWFYAMGWYRQAPGKERELVAAISWDGSRTYYADSVKGRFTISRDHAKNTVYLQMNSLKPEDTAVYYCAAESEDSNYNYWGQGTQVTVSS” as the sequence, how does the “polyreactivity (PSR sort gate)” value read?
**A.** The value was “high polyreactivity”.

**Q.** With “QVQLVESGGGLVQAGGSLRLSCAASGFTFWGYGMGWYRQAPGKERELVAAISGSGGSTYYADSVKGRFTISRDNAKNTVYLQMNSLKPEDTAVYYCNKATQFYQWGASPYYPRRDYWGQGTQVTVSS” as the sequence, how does the “polyreactivity (PSR sort gate)” value read?
**A.** The value was “low polyreactivity”.

**Q.** For “QVQLVESGGGLVQAGGSLRLSCAASGFTFWLYAMGCYRQAPGKEREFVAAISTSGGSTYADSVKGRFTISRDNAKNTVYLQMNSLKPEDTAVYYCNAGYLLYYDYHLFYWGQGTQVTVSS”, which “polyreactivity (PSR sort gate)” value is on record?
**A.** Its value is “low polyreactivity”.

**Q.** For “QVQLVESGGGLVQAGGSLRLSCAASGFTFWLYAMGSYRQAPGKEREFVAAISTSGGYTYADSVKGRFTISRDNAKNTVYLQMNSLKPEDTAVYYCAVDGLPPKDALHLYYYWGQGTQVTVSS”, which “polyreactivity (PSR sort gate)” value is on record?
**A.** Its value is “low polyreactivity”.

**Q.** For “QVQLVESGGGLVQAGGSLRLSCAASGFTFWNNAMGWYRQAPGKERELVAAISWSGGSTYYADSVKGRFTISRDNAKNTFDLQMNRLKPEDSAVYYCAAGDGPWLPRVHYGGYGYWGQGTQVTVSS”, which “polyreactivity (PSR sort gate)” value is on record?
**A.** The value was “high polyreactivity”.

**Q.** For “QVQLVESGGGLVQAGGSLRLSCAASGFTFWPNAMGWYRQAPGKERELVAAINWSGGSTYYADSVKGRFTISRDNAKYTVSLQKNSLKPEDTAVYYCAADYVTNITFDGFNKYDYWGQGTQVTVSS”, which “polyreactivity (PSR sort gate)” value is on record?
**A.** The value was “low polyreactivity”.

**Q.** With “QVQLVESGGGLVQAGGSLRLSCAASGFTFWRYAMGRYRQAPGKERELVAGISSGGSTNYADSVKGRFTISRDNAKNTVYLQMNSLKPEDTAVYYCAARGNYFYGIYGYWGQGTQVTVSS” as the sequence, how does the “polyreactivity (PSR sort gate)” value read?
**A.** Its value is “low polyreactivity”.

**Q.** For “QVQLVESGGGLVQAGGSLRLSCAASGFTFWTYAMGWYRQAPGKERELVAAIDSGGSTYYADSVKGRFTISRDNAKNTVYLQMNSVKPEDTAVYYCNAGPSVTSGYDYDYWGQGTQVTVSS”, which “polyreactivity (PSR sort gate)” value is on record?
**A.** Its value is “low polyreactivity”.
